Literature values, collected in publication PMC11596140.

Target: Cdc4 (Saccharomyces cerevisiae) (UniProt P07834)
Test: intrinsic Trp fluorescence

Sequence of UniProt P07834 (P07834 whole entry): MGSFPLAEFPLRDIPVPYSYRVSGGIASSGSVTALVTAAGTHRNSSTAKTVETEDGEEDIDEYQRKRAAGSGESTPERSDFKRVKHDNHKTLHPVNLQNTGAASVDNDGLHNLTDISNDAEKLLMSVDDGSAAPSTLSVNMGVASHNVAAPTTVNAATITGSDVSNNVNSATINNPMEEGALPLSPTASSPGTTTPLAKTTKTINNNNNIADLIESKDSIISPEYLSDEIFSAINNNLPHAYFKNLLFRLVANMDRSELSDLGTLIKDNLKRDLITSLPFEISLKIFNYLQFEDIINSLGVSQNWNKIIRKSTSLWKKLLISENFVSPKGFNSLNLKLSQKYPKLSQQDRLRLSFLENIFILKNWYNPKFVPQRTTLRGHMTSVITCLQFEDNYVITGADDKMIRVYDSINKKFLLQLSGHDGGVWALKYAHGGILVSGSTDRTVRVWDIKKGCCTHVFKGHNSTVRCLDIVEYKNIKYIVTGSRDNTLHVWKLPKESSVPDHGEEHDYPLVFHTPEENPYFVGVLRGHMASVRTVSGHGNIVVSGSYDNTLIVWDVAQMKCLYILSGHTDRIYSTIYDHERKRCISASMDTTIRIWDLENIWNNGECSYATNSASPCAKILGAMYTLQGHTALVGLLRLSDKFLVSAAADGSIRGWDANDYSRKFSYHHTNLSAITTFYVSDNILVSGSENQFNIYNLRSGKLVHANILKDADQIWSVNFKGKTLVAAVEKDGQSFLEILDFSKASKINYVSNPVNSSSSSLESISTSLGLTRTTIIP

Kd: 600 nM
Substance: Sic1 (from UniProt P38634)
